The record followed here is PMC3201865 (Nucleic Acids Research, 2011).

The assay concerns the target recombinant full-length USP7 (UniProt Q93009 1-1102). Nature of the assay: co-IP.

recombinant full-length USP7, sequence (Q93009 whole entry): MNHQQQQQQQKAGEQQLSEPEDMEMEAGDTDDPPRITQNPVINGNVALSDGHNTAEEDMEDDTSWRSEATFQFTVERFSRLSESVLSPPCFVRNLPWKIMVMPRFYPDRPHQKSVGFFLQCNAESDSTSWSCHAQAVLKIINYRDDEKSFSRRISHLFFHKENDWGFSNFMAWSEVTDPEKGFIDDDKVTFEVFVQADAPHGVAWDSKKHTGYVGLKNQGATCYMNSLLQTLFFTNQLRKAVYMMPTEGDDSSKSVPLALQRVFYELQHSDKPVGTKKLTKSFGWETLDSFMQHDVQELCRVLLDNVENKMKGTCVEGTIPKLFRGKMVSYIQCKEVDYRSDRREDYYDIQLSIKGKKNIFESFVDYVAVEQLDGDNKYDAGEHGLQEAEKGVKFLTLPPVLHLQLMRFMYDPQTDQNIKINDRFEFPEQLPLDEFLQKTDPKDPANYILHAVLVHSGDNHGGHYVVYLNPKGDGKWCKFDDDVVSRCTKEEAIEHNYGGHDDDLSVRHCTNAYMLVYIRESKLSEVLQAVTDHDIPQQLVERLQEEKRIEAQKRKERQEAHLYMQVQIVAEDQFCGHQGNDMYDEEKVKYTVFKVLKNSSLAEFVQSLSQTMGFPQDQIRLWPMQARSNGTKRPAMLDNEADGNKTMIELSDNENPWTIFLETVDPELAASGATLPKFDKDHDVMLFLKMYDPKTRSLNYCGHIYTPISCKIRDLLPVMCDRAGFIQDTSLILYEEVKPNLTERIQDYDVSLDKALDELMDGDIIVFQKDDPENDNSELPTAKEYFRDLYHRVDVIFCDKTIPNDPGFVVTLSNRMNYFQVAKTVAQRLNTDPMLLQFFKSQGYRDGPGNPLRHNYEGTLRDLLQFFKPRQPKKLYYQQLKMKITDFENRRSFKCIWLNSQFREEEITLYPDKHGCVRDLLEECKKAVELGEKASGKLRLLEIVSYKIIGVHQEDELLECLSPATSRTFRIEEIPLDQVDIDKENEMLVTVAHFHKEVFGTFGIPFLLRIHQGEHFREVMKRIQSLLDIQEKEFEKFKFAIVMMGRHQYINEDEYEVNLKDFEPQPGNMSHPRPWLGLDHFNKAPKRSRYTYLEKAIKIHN

B1: recombinant full-length UHRF1 (natural protein)
chain: MWIQVRTMDGRQTHTVDSLSRLTKVEELRRKIQELFHVEPGLQRLFYRGKQMEDGHTLFDYEVRLNDTIQLLVRQSLVLPHSTKERDSELSDTDSGCCLGQSESDKSSTHGEAAAETDSRPADEDMWDETELGLYKVNEYVDARDTNMGAWFEAQVVRVTRKAPSRDEPCSSTSRPALEEDVIYHVKYDDYPENGVVQMNSRDVRARARTIIKWQDLEVGQVVMLNYNPDNPKERGFWYDAEISRKRETRTARELYANVVLGDDSLNDCRIIFVDEVFKIERPGEGSPMVDNPMRRKSGPSCKHCKDDVNRLCRVCACHLCGGRQDPDKQLMCDECDMAFHIYCLDPPLSSVPSEDEWYCPECRNDASEVVLAGERLRESKKKAKMASATSSSQRDWGKGMACVGRTKECTIVPSNHYGPIPGIPVGTMWRFRVQVSESGVHRPHVAGIHGRSNDGAYSLVLAGGYEDDVDHGNFFTYTGSGGRDLSGNKRTAEQSCDQKLTNTNRALALNCFAPINDQEGAEAKDWRSGKPVRVVRNVKGGKNSKYAPAEGNRYDGIYKVVKYWPEKGKSGFLVWRYLLRRDDDEPGPWTKEGKDRIKKLGLTMQYPEGYLEALANREREKENSKREEEEQQEGGFASPRTGKGKWKRKSAGGGPSRAGSPRRTSKKTKVEPYSLTAQQSSLIREDKSNAKLWNEVLASLKDRPASGSPFQLFLSKVEETFQCICCQELVFRPITTVCQHNVCKDCLDRSFRAQVFSCPACRYDLGRSYAMQVNQPLQTVLNQLFPGYGNGR
With B1, the binding result is recorded as “binds”.
